The values below come from publication PMC7556403.

In experiment [1] the target is MBP–APO1 mXT-173Q (human) (UniProt P41238). Briefly: SEC-MALS; MBP–APO1 fusions with Leu, Gln or Ala at position 173; SEC and MALS.
The target of experiment [2] is MBP–APO1 mXT-173L (human) (UniProt P41238). Described as above.
The target in experiment [3] is MBP–APO1 mSOL (human) (UniProt P41238). The experiment can be described thus: SEC; MBP–APO1 fusion proteins; SEC in 20 mM HEPES pH 7.5, 500 mM NaCl, 0.5 mM TCEP.
Experiment [4] addresses MBP–APO1 mXT (human) (UniProt P41238). Described as above.
For experiment [5] the target is unchanged. Briefly: SEC-MALS; MBP–APO1 fusions with Leu, Gln or Ala at position 173; SEC and MALS. For orientation: SEC sorts molecules by how far they enter the pores of the column.

Substance “MBP–APO1 mXT-173Q (from UniProt P41238 15-236) (enzyme)” came in with a percent in the dimer peak in experiment [1] of 1 to 2%.

As a reminder, the stoichiometry N is a count of units in the complex or per binding partner. In experiment [2], “MBP–APO1 mXT-173L (from UniProt P41238 15-236) (enzyme)” gave a stoichiometry N of 2.

With “MBP–APO1 mSOL (from UniProt P41238 1-236) (enzyme)”, in experiment [3], the stoichiometry N came out at 2. Turning to “MBP–APO1 mXT (from UniProt P41238 15-236) (enzyme)”, the stoichiometry N in experiment [4] and in experiment [5] was 2 in each case.
